Reference: paper PMC12570964 (Nature Microbiology, 2025)

Biological target: T1, mouse IFIT3 (M. musculus Ifit3, co-expressed with Ifit2 in E. coli) (M. musculus, UniProt Q64345 8-389)
T1 construct: also called interferon-induced protein with tetratricopeptide repeats 3
T1 sequence: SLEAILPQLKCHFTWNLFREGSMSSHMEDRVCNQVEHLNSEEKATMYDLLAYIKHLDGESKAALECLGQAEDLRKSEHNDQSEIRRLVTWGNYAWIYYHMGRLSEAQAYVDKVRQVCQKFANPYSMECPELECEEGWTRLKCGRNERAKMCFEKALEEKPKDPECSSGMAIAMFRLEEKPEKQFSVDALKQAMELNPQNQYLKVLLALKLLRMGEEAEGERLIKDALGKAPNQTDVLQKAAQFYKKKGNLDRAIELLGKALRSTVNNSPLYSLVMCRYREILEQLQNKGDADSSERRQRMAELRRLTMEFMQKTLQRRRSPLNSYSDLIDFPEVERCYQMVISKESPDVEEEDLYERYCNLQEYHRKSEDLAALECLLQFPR
Assay: cryo-EM structure
Settings: both partners purified

B1: mouse IFIT2 (M. musculus Ifit2, co-expressed with Ifit3 in E. coli) (natural protein, UniProt Q64112 1-472, looked up)
chain: MSTTSKESLVCNLRQLKCHFTWNLIAEDESLDEFEDRVFNKDEFQNSEFKATMCNILAYVKHCRGLNEAALQCLGEAEGFIQQQHPDQVEIRSLVTWGNYAWVYYHMGQFSKAQAYLDKVKQVCKKFSSPYRIENPALDCEEGWARLKCTKNQNERVKVCFQKALEKDPKNPEFTSGWAIAFYRLDDWPARNYCIDSLEQAIQLSPDNTYVKVLLALKLDAVHVHKNQAMALVEEALKKDPSAIDTLLRAARFYCKVYDTDRAIQLLRKALEKLPNNAYVHYYMGCCYRSKVHHMLNRREMVFSGDRKKLEELIQLAVNHLRKAEEIKEMLEYSCSFLADLYIIAKKYDEADYYFQKELSKDLPPGPKQLLHLRYGNFQFFQMKRQDKAIYHYMEGVKIKKKTIPQKKMREKLQRIALRRLHEDESDSEALHILAFLQENGGGQQADKDSERGVDSANQVPSASLDEDGAEY
notes: also called interferon-induced protein with tetratricopeptide repeats 2; source: E. coli Rosetta pLysS, co-expressed with Ifit3, purified (nickel column, TEV cleavage, Superdex 200 size exclusion)
stoichiometry N: 1
